Reference: patent US20210388087A1 (Chugai, published 2021)

B1: H183/L072 VH A56P (antibody, name in Kabat numbering, V domains shown)
VH: QVQLVESGGGLVQPGRSLRLSCAASGFTFSNAWMHWVRQAPGKGLEWVAQIKDKGNAYPAYYAPSVKGRFTISRDDSKNSIYLQMNSLKTEDTAVYYCHYVHYASASTVLPAFGVDAWGQGTTVTVSS
VL: DIVMTQSPLSLPVTPGEPASISCQASQELVHMNRNTYLHWYQQKPGQAPRLLIYKVSNRFPGVPDRFSGSGSGTDFTLKISRVEAEDVGVYYCAQGTSVPFTFGQGTKLEIK
B2: H183/L072 VH A57I (antibody, name in Kabat numbering, V domains shown)
VH: QVQLVESGGGLVQPGRSLRLSCAASGFTFSNAWMHWVRQAPGKGLEWVAQIKDKGNAYAIYYAPSVKGRFTISRDDSKNSIYLQMNSLKTEDTAVYYCHYVHYASASTVLPAFGVDAWGQGTTVTVSS
VL: DIVMTQSPLSLPVTPGEPASISCQASQELVHMNRNTYLHWYQQKPGQAPRLLIYKVSNRFPGVPDRFSGSGSGTDFTLKISRVEAEDVGVYYCAQGTSVPFTFGQGTKLEIK
B3: H183/L072 VH A57N (antibody, name in Kabat numbering, V domains shown)
VH: QVQLVESGGGLVQPGRSLRLSCAASGFTFSNAWMHWVRQAPGKGLEWVAQIKDKGNAYANYYAPSVKGRFTISRDDSKNSIYLQMNSLKTEDTAVYYCHYVHYASASTVLPAFGVDAWGQGTTVTVSS
VL: DIVMTQSPLSLPVTPGEPASISCQASQELVHMNRNTYLHWYQQKPGQAPRLLIYKVSNRFPGVPDRFSGSGSGTDFTLKISRVEAEDVGVYYCAQGTSVPFTFGQGTKLEIK
B4: H183/L072 VH A56S (antibody, name in Kabat numbering, V domains shown)
VH: QVQLVESGGGLVQPGRSLRLSCAASGFTFSNAWMHWVRQAPGKGLEWVAQIKDKGNAYSAYYAPSVKGRFTISRDDSKNSIYLQMNSLKTEDTAVYYCHYVHYASASTVLPAFGVDAWGQGTTVTVSS
VL: DIVMTQSPLSLPVTPGEPASISCQASQELVHMNRNTYLHWYQQKPGQAPRLLIYKVSNRFPGVPDRFSGSGSGTDFTLKISRVEAEDVGVYYCAQGTSVPFTFGQGTKLEIK
B5: H183/L072 VH A57Q (antibody, name in Kabat numbering, V domains shown)
VH: QVQLVESGGGLVQPGRSLRLSCAASGFTFSNAWMHWVRQAPGKGLEWVAQIKDKGNAYAQYYAPSVKGRFTISRDDSKNSIYLQMNSLKTEDTAVYYCHYVHYASASTVLPAFGVDAWGQGTTVTVSS
VL: DIVMTQSPLSLPVTPGEPASISCQASQELVHMNRNTYLHWYQQKPGQAPRLLIYKVSNRFPGVPDRFSGSGSGTDFTLKISRVEAEDVGVYYCAQGTSVPFTFGQGTKLEIK
B6: H183/L072 VH A57G (antibody, name in Kabat numbering, V domains shown)
VH: QVQLVESGGGLVQPGRSLRLSCAASGFTFSNAWMHWVRQAPGKGLEWVAQIKDKGNAYAGYYAPSVKGRFTISRDDSKNSIYLQMNSLKTEDTAVYYCHYVHYASASTVLPAFGVDAWGQGTTVTVSS
VL: DIVMTQSPLSLPVTPGEPASISCQASQELVHMNRNTYLHWYQQKPGQAPRLLIYKVSNRFPGVPDRFSGSGSGTDFTLKISRVEAEDVGVYYCAQGTSVPFTFGQGTKLEIK
B7: H183/L072 VH A56T (antibody, name in Kabat numbering, V domains shown)
VH: QVQLVESGGGLVQPGRSLRLSCAASGFTFSNAWMHWVRQAPGKGLEWVAQIKDKGNAYTAYYAPSVKGRFTISRDDSKNSIYLQMNSLKTEDTAVYYCHYVHYASASTVLPAFGVDAWGQGTTVTVSS
VL: DIVMTQSPLSLPVTPGEPASISCQASQELVHMNRNTYLHWYQQKPGQAPRLLIYKVSNRFPGVPDRFSGSGSGTDFTLKISRVEAEDVGVYYCAQGTSVPFTFGQGTKLEIK
B8: H183/L072 VH A57P (antibody, name in Kabat numbering, V domains shown)
VH: QVQLVESGGGLVQPGRSLRLSCAASGFTFSNAWMHWVRQAPGKGLEWVAQIKDKGNAYAPYYAPSVKGRFTISRDDSKNSIYLQMNSLKTEDTAVYYCHYVHYASASTVLPAFGVDAWGQGTTVTVSS
VL: DIVMTQSPLSLPVTPGEPASISCQASQELVHMNRNTYLHWYQQKPGQAPRLLIYKVSNRFPGVPDRFSGSGSGTDFTLKISRVEAEDVGVYYCAQGTSVPFTFGQGTKLEIK
B9: H183/L072 VH A57M (antibody, name in Kabat numbering, V domains shown)
VH: QVQLVESGGGLVQPGRSLRLSCAASGFTFSNAWMHWVRQAPGKGLEWVAQIKDKGNAYAMYYAPSVKGRFTISRDDSKNSIYLQMNSLKTEDTAVYYCHYVHYASASTVLPAFGVDAWGQGTTVTVSS
VL: DIVMTQSPLSLPVTPGEPASISCQASQELVHMNRNTYLHWYQQKPGQAPRLLIYKVSNRFPGVPDRFSGSGSGTDFTLKISRVEAEDVGVYYCAQGTSVPFTFGQGTKLEIK
B10: H183/L072 VH A56W (antibody, name in Kabat numbering, V domains shown)
VH: QVQLVESGGGLVQPGRSLRLSCAASGFTFSNAWMHWVRQAPGKGLEWVAQIKDKGNAYWAYYAPSVKGRFTISRDDSKNSIYLQMNSLKTEDTAVYYCHYVHYASASTVLPAFGVDAWGQGTTVTVSS
VL: DIVMTQSPLSLPVTPGEPASISCQASQELVHMNRNTYLHWYQQKPGQAPRLLIYKVSNRFPGVPDRFSGSGSGTDFTLKISRVEAEDVGVYYCAQGTSVPFTFGQGTKLEIK
B11: H183/L072 VH A57F (antibody, name in Kabat numbering, V domains shown)
VH: QVQLVESGGGLVQPGRSLRLSCAASGFTFSNAWMHWVRQAPGKGLEWVAQIKDKGNAYAFYYAPSVKGRFTISRDDSKNSIYLQMNSLKTEDTAVYYCHYVHYASASTVLPAFGVDAWGQGTTVTVSS
VL: DIVMTQSPLSLPVTPGEPASISCQASQELVHMNRNTYLHWYQQKPGQAPRLLIYKVSNRFPGVPDRFSGSGSGTDFTLKISRVEAEDVGVYYCAQGTSVPFTFGQGTKLEIK
B12: H183/L072 VH A57E (antibody, name in Kabat numbering, V domains shown)
VH: QVQLVESGGGLVQPGRSLRLSCAASGFTFSNAWMHWVRQAPGKGLEWVAQIKDKGNAYAEYYAPSVKGRFTISRDDSKNSIYLQMNSLKTEDTAVYYCHYVHYASASTVLPAFGVDAWGQGTTVTVSS
VL: DIVMTQSPLSLPVTPGEPASISCQASQELVHMNRNTYLHWYQQKPGQAPRLLIYKVSNRFPGVPDRFSGSGSGTDFTLKISRVEAEDVGVYYCAQGTSVPFTFGQGTKLEIK
B13: H183/L072 VH A57D (antibody, name in Kabat numbering, V domains shown)
VH: QVQLVESGGGLVQPGRSLRLSCAASGFTFSNAWMHWVRQAPGKGLEWVAQIKDKGNAYADYYAPSVKGRFTISRDDSKNSIYLQMNSLKTEDTAVYYCHYVHYASASTVLPAFGVDAWGQGTTVTVSS
VL: DIVMTQSPLSLPVTPGEPASISCQASQELVHMNRNTYLHWYQQKPGQAPRLLIYKVSNRFPGVPDRFSGSGSGTDFTLKISRVEAEDVGVYYCAQGTSVPFTFGQGTKLEIK
B14: H183/L072 VH A57H (antibody, name in Kabat numbering, V domains shown)
VH: QVQLVESGGGLVQPGRSLRLSCAASGFTFSNAWMHWVRQAPGKGLEWVAQIKDKGNAYAHYYAPSVKGRFTISRDDSKNSIYLQMNSLKTEDTAVYYCHYVHYASASTVLPAFGVDAWGQGTTVTVSS
VL: DIVMTQSPLSLPVTPGEPASISCQASQELVHMNRNTYLHWYQQKPGQAPRLLIYKVSNRFPGVPDRFSGSGSGTDFTLKISRVEAEDVGVYYCAQGTSVPFTFGQGTKLEIK
B15: H183/L072 VH A56V (antibody, name in Kabat numbering, V domains shown)
VH: QVQLVESGGGLVQPGRSLRLSCAASGFTFSNAWMHWVRQAPGKGLEWVAQIKDKGNAYVAYYAPSVKGRFTISRDDSKNSIYLQMNSLKTEDTAVYYCHYVHYASASTVLPAFGVDAWGQGTTVTVSS
VL: DIVMTQSPLSLPVTPGEPASISCQASQELVHMNRNTYLHWYQQKPGQAPRLLIYKVSNRFPGVPDRFSGSGSGTDFTLKISRVEAEDVGVYYCAQGTSVPFTFGQGTKLEIK
B16: H183/L072 VH A57K (antibody, name in Kabat numbering, V domains shown)
VH: QVQLVESGGGLVQPGRSLRLSCAASGFTFSNAWMHWVRQAPGKGLEWVAQIKDKGNAYAKYYAPSVKGRFTISRDDSKNSIYLQMNSLKTEDTAVYYCHYVHYASASTVLPAFGVDAWGQGTTVTVSS
VL: DIVMTQSPLSLPVTPGEPASISCQASQELVHMNRNTYLHWYQQKPGQAPRLLIYKVSNRFPGVPDRFSGSGSGTDFTLKISRVEAEDVGVYYCAQGTSVPFTFGQGTKLEIK
B17: H183/L072 VH A56Y (antibody, name in Kabat numbering, V domains shown)
VH: QVQLVESGGGLVQPGRSLRLSCAASGFTFSNAWMHWVRQAPGKGLEWVAQIKDKGNAYYAYYAPSVKGRFTISRDDSKNSIYLQMNSLKTEDTAVYYCHYVHYASASTVLPAFGVDAWGQGTTVTVSS
VL: DIVMTQSPLSLPVTPGEPASISCQASQELVHMNRNTYLHWYQQKPGQAPRLLIYKVSNRFPGVPDRFSGSGSGTDFTLKISRVEAEDVGVYYCAQGTSVPFTFGQGTKLEIK
B18: H183/L072 VH A56Q (antibody, name in Kabat numbering, V domains shown)
VH: QVQLVESGGGLVQPGRSLRLSCAASGFTFSNAWMHWVRQAPGKGLEWVAQIKDKGNAYQAYYAPSVKGRFTISRDDSKNSIYLQMNSLKTEDTAVYYCHYVHYASASTVLPAFGVDAWGQGTTVTVSS
VL: DIVMTQSPLSLPVTPGEPASISCQASQELVHMNRNTYLHWYQQKPGQAPRLLIYKVSNRFPGVPDRFSGSGSGTDFTLKISRVEAEDVGVYYCAQGTSVPFTFGQGTKLEIK
B19: H183/L072 VH A57R (antibody, name in Kabat numbering, V domains shown)
VH: QVQLVESGGGLVQPGRSLRLSCAASGFTFSNAWMHWVRQAPGKGLEWVAQIKDKGNAYARYYAPSVKGRFTISRDDSKNSIYLQMNSLKTEDTAVYYCHYVHYASASTVLPAFGVDAWGQGTTVTVSS
VL: DIVMTQSPLSLPVTPGEPASISCQASQELVHMNRNTYLHWYQQKPGQAPRLLIYKVSNRFPGVPDRFSGSGSGTDFTLKISRVEAEDVGVYYCAQGTSVPFTFGQGTKLEIK
B20: H183/L072 VH A56R (antibody, name in Kabat numbering, V domains shown)
VH: QVQLVESGGGLVQPGRSLRLSCAASGFTFSNAWMHWVRQAPGKGLEWVAQIKDKGNAYRAYYAPSVKGRFTISRDDSKNSIYLQMNSLKTEDTAVYYCHYVHYASASTVLPAFGVDAWGQGTTVTVSS
VL: DIVMTQSPLSLPVTPGEPASISCQASQELVHMNRNTYLHWYQQKPGQAPRLLIYKVSNRFPGVPDRFSGSGSGTDFTLKISRVEAEDVGVYYCAQGTSVPFTFGQGTKLEIK

Each binder was assayed against T1, Human CD137 ECD (human) (assay: single mutant vs template dBBDu183H).
T1 construct: also called 4-1BB
T1 sequence (chain, as listed by the source limits assumed): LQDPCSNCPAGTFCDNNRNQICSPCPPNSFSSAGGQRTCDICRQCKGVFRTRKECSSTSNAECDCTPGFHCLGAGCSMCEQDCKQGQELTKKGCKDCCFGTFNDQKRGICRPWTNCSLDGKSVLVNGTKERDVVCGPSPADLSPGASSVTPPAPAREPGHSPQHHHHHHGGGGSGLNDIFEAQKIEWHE

Point of comparison: B9, “fold change of affinity” value 0.7 fold. Against it:
- B1 — lower, 0.2 fold
- B2 — lower, 0.1 fold
- B3 — lower, 0.3 fold
- B4 — the same, 0.7 fold
- B5 — higher, 0.9 fold
- B6 — higher, 0.9 fold
- B7 — lower, 0.4 fold
- B8 — higher, 1 fold
- B10 — lower, 0.3 fold
- B11 — lower, 0.1 fold
- B12 — higher, 0.9 fold
- B13 — higher, 1.2 fold
- B14 — lower, 0.5 fold
- B15 — lower, 0.2 fold
- B16 — higher, 0.9 fold
- B17 — lower, 0.3 fold
- B18 — higher, 0.8 fold
- B19 — lower, 0.5 fold
- B20 — higher, 0.8 fold
